In patent publication US20230312730A1 (ATYR PHARMA, published 2023):
Numbering of substitutions follows the chain as printed. Names may count otherwise. “And” between values parts separate entries of the source, which are not always exact repeats. Identical values can stand only once.

Legend:
[1] = target: human NRP2 endogenously expressed on cell lines (human) (UniProt O60462); test: flow cytometry on A549 WT cells
[2] = target: T1, human NRP2 variant 2 (NM_003872) over-expressed on Expi293-hNRP2 clonal cells (human, UniProt O60462 23-931); test: flow cytometry on Expi293-hNRP2 cells, 0.05-100 nM, rabbit anti-VEGF-C detection
T1 sequence: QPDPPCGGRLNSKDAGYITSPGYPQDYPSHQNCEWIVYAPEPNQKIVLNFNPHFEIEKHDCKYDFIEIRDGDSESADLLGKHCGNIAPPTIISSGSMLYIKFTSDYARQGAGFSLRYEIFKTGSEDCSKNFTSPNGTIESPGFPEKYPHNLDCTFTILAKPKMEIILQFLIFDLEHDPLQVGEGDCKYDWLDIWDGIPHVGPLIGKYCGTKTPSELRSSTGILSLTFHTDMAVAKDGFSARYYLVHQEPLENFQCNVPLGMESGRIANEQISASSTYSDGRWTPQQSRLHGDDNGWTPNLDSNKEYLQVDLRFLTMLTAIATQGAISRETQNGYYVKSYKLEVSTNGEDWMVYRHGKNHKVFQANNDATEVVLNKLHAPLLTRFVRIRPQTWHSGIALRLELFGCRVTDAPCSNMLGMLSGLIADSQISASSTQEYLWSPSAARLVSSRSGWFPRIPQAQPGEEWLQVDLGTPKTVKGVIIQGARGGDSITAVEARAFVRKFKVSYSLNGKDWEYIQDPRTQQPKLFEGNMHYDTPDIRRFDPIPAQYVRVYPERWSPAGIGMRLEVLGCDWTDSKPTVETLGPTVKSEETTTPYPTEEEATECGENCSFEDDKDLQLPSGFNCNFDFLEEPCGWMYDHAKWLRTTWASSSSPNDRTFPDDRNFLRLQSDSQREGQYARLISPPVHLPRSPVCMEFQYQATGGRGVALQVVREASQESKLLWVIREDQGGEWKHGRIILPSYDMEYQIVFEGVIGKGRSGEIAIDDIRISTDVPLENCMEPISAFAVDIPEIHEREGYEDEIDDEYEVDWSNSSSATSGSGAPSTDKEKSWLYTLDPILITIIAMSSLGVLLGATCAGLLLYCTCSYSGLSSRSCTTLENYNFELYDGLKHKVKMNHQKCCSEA
Description: (§1) To assess the ability of the anti-NRP2 antibodies to displace the binding of VEGF-C, Semaphorin 3F and HRS polypeptides, flow cytometry was used. Binding of recombinant human VEGF-C (R&D Cat#9199-VC-025, untagged), Sema3F-Fc (R&D Cat#9878-S3-025, Fc chimera protein) or Sema3F-p95m (prepared In-house), Myc-tagged Sema3F-p95 R583A R586A-1359) to Expi293-hNRP2 cells over expressing human NRP2 were determined by immunostaining assay as described in Example 4. Studies were conducted with cells incubated with each of these proteins at 0.05 - 100 nM at 3-fold dilutions on ice for 1 hour. Cells were then washed and stained with secondary and/or detection antibodies as described previously. […] Sema3F-Fc was detected by a Cy3-conjugated goat anti-human Fc IgG (Jackson ImmunoResearch Cat#109165098). Sema3F-p95m was detected by an AF555-conjugated anti-Myc antibody (ThermoFisher Cat#MA1980A555).
(§2) Binding curves were fit and EC₅₀ values determined as described above. VEGF-C was determined to bind to Expi293-hNRP2 cells with an EC₅₀ of 0.6 nM. Sema3F-Fc was determined to bind to Expi293-hNRP2 cells with an EC₅₀ of ^{~}8.2 nM, and Sema3F-p95m bound to Expi293-hNRP2 cells with an with EC₅₀ of 5.7 nM.

[3] = target: T1, human NRP2 variant 2 (NM_003872) …; test: flow cytometry on Expi293-hNRP2 cells, 0.05-100 nM, anti-human Fc detection
Description: as §1, §2

[4] = target: T1, human NRP2 variant 2 (NM_003872) …; test: flow cytometry on Expi293-hNRP2 cells, 0.05-100 nM, anti-Myc detection
Description: as §1, §2

“C9-AF647 Santa Cruz Biotech anti-NRP2 antibody” was tested, and the Fold change of a-NRP2 to Ctl (FC) [1] was 2.6 fold and 1.8 fold.

“C9-PE Santa Cruz Biotech anti-NRP2 antibody” was tested, and the Fold change of a-NRP2 to Ctl (FC) [1] was 6 fold.

B1: recombinant human VEGF-C (R&D Systems #9199-VC) (ligand, UniProt P49767 103-227, looked up)
chain: TEETIKFAAAHYNTEILKSIDNEWRKTQCMPREVCIDVGKEFGVATNTFFKPPCVSVYRCGGCCNSEGLQCMNTSTSYLSKTLFEITVPLSQGPKPVTISFANHTSCRCMSKLDVYRQVHSIIRR
notes: Bought reagent
Work on B1 yielded an EC50 [2] of 0.6 nM.

B2: Human SEMA3F-Fc (R&D Systems #9878-S3) (Fc fusion, UniProt Q13275 19-779, looked up)
chain: SFPTQDHLPATPRVRLSFKELKATGTAHFFNFLLNTTDYRILLKDEDHDRMYVGSKDYVLSLDLHDINREPLIIHWAASPQRIEECVLSGKDVNGECGNFVRLIQPWNRTHLYVCGTGAYNPMCTYVNRGRRAQATPWTQTQAVRGRGSRATDGALRPMPTAPRQDYIFYLEPERLESGKGKCPYDPKLDTASALINEELYAGVYIDFMGTDAAIFRTLGKQTAMRTDQYNSRWLNDPSFIHAELIPDSAERNDDKLYFFFRERSAEAPQSPAVYARIGRICLNDDGGHCCLVNKWSTFLKARLVCSVPGEDGIETHFDELQDVFVQQTQDVRNPVIYAVFTSSGSVFRGSAVCVYSMADIRMVFNGPFAHKEGPNYQWMPFSGKMPYPRPGTCPGGTFTPSMKSTKDYPDEVINFMRSHPLMYQAVYPLQRRPLVVRTGAPYRLTTIAVDQVDAADGRYEVLFLGTDRGTVQKVIVLPKDDQELEELMLEEVEVFKDPAPVKTMTISSKRQQLYVASAVGVTHLSLHRCQAYGAACADCCLARDPYCAWDGQACSRYTASSKRRSRRQDVRHGNPIRQCRGFNSNANKNAVESVQYGVAGSAAFLECQPRSPQATVKWLFQRDPGDRRREIRAEDRFLRTEQGLLLRALQLSDRGLYSCTATENNFKHVVTRVQLHVLGRDAVHAALFPPLSMSAPPPPGAGPPTPPYQELAQLLAQPEVGLIHQYCQGYWRHVPPSPREAPGAPRSPEPQDQKKPRNRR
notes: Bought reagent; not shown: Fc of the bought chimera (detected with anti-human Fc)
B2 showed an EC50 [3] of about 8.2 nM.

B3: Sema3F-p95m (Myc-tagged Sema3F-p95 R583A R586A-1359) (ligand, UniProt Q13275 19-779, looked up)
chain: B2 chain with R565A, R568A
notes: not shown: Myc tag
Work on B3 yielded an EC50 [4] of 5.7 nM.
